{"source": "paper PMC3025021", "about": "“Structural Basis of Enzymatic Activity for the Ferulic Acid Decarboxylase (FADase) from Enterobacter sp. Px6-4” (PLoS ONE, 2011)", "molecules": {"B1": {"name": "FADase (ferulic acid decarboxylase) (Enterobacter sp. Px6-4) (protein)", "chain": "MNTFDKHDLSGFVGKHLVYTYDNGWEYEIYVKNENTLDYRIHSGLVGNRWVKDQQAYIVRVGESIYKISWTEPTGTDVSLIVNLGDSLFHGTIFFPRWVMNNPEKTVCFQNDHIPLMNSYRDAGPAYPTEVIDEFATITFVRDCGANNESVIACAASELPKNFPDNLK", "notes": "full-length Met1-Lys168, pET-28a(+) EcoRI/HindIII, Ni-NTA purified, E. coli BL21(DE3); 23 kDa subunit, homodimer (44 kDa)"}}, "key": {"[1]": {"molecular_target": "T1, FADase (ferulic acid decarboxylase) (Enterobacter sp. Px6-4, UniProt C6F3U5)", "T1 construct": "full-length Met1-Lys168, pET-28a(+) EcoRI/HindIII, Ni-NTA purified, E. coli BL21(DE3); 23 kDa subunit, homodimer (44 kDa)", "T1 sequence (C6F3U5 1-168)": "B1 chain", "assay": "X-ray crystal structure, soaking, […] Å", "type": "binding", "settings": "crystals soaked overnight with 7 mM sodium ferulate; active site of monomer A"}, "COc1cc(/C=C/C(=O)O)ccc1O": {"tested_on": "T2, COc1cc(/C=C/C(=O)O)ccc1O", "T2 construct": "full-length Met1-Lys168, pET-28a(+) EcoRI/HindIII, Ni-NTA purified, E. coli BL21(DE3); 23 kDa subunit, homodimer (44 kDa)", "assay": "HPLC decarboxylation assay", "type": "biochemical, Enterobacter sp. Px6-4", "settings": "50 mM sodium phosphate pH 4.0, 28 °C (standard activity assay)", "description": "(§1) HPLC decarboxylation assay on FADase (ferulic acid decarboxylase)"}, "[2]": {"molecular_target": "Ferulic acid decarboxylase (FADase) from Enterobacter sp. Px6-4 (Enterobacter sp. Px6-4)", "assay": "SEC; gel-filtration / size exclusion chromatography of recombinant FADase; data not shown"}, "[3]": {"molecular_target": "Ferulic acid decarboxylase (FADase) from Enterobacter sp. Px6-4 (Enterobacter sp. Px6-4)", "assay": "cross-linking; cross-linking of FADase with ethylene glycolbis (EGS), read on a gel"}, "[4]": {"substrate": "COc1cc(/C=C/C(=O)O)ccc1O", "assay": "HPLC decarboxylation assay", "type": "biochemical, Enterobacter sp. Px6-4", "settings": "50 mM sodium phosphate pH 4.0, 28 °C (standard activity assay)", "description": "as §1"}}, "data": [{"molecule": "COc1cc(/C=C/C(=O)O)ccc1O", "note": "[sodium ferulate]", "values": [{"measurement": "X-ray crystal structure, soaking, 2.1 Å", "setting": "[1]", "value": "The crystal structure of FADase in complex with the substrate analog sodium ferulate"}]}, {"molecule": "FADase (ferulic acid decarboxylase) (Enterobacter sp. Px6-4; E134A)", "values": [{"measurement": "Km", "setting": "COc1cc(/C=C/C(=O)O)ccc1O", "value": 3520, "unit": "µM"}, {"measurement": "Vmax", "setting": "COc1cc(/C=C/C(=O)O)ccc1O", "value": 285, "unit": "µM/min"}, {"measurement": "kcat", "setting": "COc1cc(/C=C/C(=O)O)ccc1O", "value": 0.995, "unit": "s⁻¹"}, {"measurement": "kcat/Km", "setting": "COc1cc(/C=C/C(=O)O)ccc1O", "value": 280, "unit": "M⁻¹ s⁻¹"}]}, {"molecule": "FADase (ferulic acid decarboxylase) (Enterobacter sp. Px6-4; W25A)", "values": [{"measurement": "Km", "setting": "COc1cc(/C=C/C(=O)O)ccc1O", "value": 730, "unit": "µM"}, {"measurement": "Vmax", "setting": "COc1cc(/C=C/C(=O)O)ccc1O", "value": 39.6, "unit": "µM/min"}, {"measurement": "kcat", "setting": "COc1cc(/C=C/C(=O)O)ccc1O", "value": 0.02, "unit": "s⁻¹"}, {"measurement": "kcat/Km", "setting": "COc1cc(/C=C/C(=O)O)ccc1O", "value": 20, "unit": "M⁻¹ s⁻¹"}]}, {"molecule": "Ferulic acid decarboxylase (FADase) from Enterobacter sp. Px6-4 (enzyme)", "values": [{"measurement": "stoichiometry N", "setting": "[2]", "value": 2}, {"measurement": "stoichiometry N", "setting": "[3]", "value": 2}]}, {"molecule": "B1", "values": [{"measurement": "Km", "setting": "[4]", "value": 2360, "unit": "µM"}, {"measurement": "Vmax", "setting": "[4]", "value": 606, "unit": "µM/min"}, {"measurement": "kcat", "setting": "[4]", "value": 2.15, "unit": "s⁻¹"}, {"measurement": "kcat/Km", "setting": "[4]", "value": 910, "unit": "M⁻¹ s⁻¹"}]}]}
